Experimental data from publication PMC4966588.

Molecular target: gp41 of HIV-1 NL4.3 viral particles (HIV-1 NL4.3)

Molecule | cytosolic viral p24 (ELISA) in primary CD4+ T cells pretreated with AAT and infected with HIV-1 NL4.3 Gag-iGFP [% decrease] | entry of HIV-1 NL4.3 Gag-iGFP into primary CD4+ T cells pretreated with AAT (0.5 g/L), GFP by flow cytometry, against untreated cells [% decrease] | cytosolic viral p24 (ELISA) in primary CD4+ T cells pretreated with C and infected with HIV-1 NL4.3 Gag-iGFP, against cells pretreated with AAT [% decrease] | entry of HIV-1 NL4.3 Gag-iGFP into primary CD4+ T cells pretreated with C (0.05 g/L), GFP by flow cytometry, against cells pretreated with AAT [% decrease]
alpha-1-antitrypsin (from UniProt P01009 25-418) (natural protein) | > 60 | > 60 | – | –
KGTEAAGAMFLEAIPMSIPPEVKFNKPFVFLMIDQNTKSP [synthesized C-terminus fragment of AAT] | – | – | > 50 | > 50
